{"source": "paper PMC3984902", "about": "(Oncogene, 2013)", "biological_target": "HSP90β (purified recombinant) (UniProt P08238 1-724)", "sequence (P08238 whole entry)": "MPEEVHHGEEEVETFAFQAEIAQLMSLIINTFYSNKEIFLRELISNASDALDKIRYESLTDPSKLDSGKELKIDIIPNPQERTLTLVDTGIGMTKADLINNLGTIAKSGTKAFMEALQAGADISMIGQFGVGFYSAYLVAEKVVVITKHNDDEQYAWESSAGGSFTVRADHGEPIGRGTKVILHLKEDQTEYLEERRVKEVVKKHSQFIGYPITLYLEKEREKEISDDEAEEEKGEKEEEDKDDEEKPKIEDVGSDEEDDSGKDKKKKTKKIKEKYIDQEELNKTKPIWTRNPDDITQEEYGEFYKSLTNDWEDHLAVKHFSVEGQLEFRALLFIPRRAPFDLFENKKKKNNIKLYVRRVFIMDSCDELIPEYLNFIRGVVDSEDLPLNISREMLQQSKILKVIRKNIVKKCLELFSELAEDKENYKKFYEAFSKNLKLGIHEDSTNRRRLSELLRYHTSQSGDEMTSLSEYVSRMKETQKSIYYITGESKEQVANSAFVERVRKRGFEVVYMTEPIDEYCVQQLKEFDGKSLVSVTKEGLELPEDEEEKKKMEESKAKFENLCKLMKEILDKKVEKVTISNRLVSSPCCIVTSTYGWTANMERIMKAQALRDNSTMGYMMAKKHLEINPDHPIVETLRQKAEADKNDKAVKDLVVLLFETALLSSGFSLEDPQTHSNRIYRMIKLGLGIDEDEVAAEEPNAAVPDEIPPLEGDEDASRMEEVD", "experiment": "ITC"}
{"binder": "FLAG-tagged wildtype CDC37 (purified recombinant) (natural protein) MVDYSVWDHIEVSDDEDETHPNIDTASLFRWRHQARVERMEQFQKEKEELDRGCRECKRKVAECQRKLKELEVAEGGKAELERLQAEAQQLRKEERSWEQKLEEMRKKEKSMPWNVDTLSKDGFSKSMVNTKPEKTEEDSEEVREQKHKTFVEKYEKQIKHFGMLRRWDDSQKYLSDNVHLVCEETANYLVIWCIDLEVEEKCALMEQVAHQTIVMQFILELAKSLKVDPRACFRQFFTKIKTADRQYMEGFNDELEAFKERVRGRAKLRIEKAMKEYEEEERKKRLGPGGLDPVEVYESLPEELQKCFDVKDVQMLQDAISKMDPTDAKYHMQRCIDSGLWVPNSKASEAKEGEEAGPGDPLLEAVPKTGDEKDVSV", "values": [{"measurement": "Kd", "result": 2.26, "unit": "µM"}]}
{"binder": "FLAG-tagged CDC37 M164A (purified recombinant) (natural protein) MVDYSVWDHIEVSDDEDETHPNIDTASLFRWRHQARVERMEQFQKEKEELDRGCRECKRKVAECQRKLKELEVAEGGKAELERLQAEAQQLRKEERSWEQKLEEMRKKEKSMPWNVDTLSKDGFSKSMVNTKPEKTEEDSEEVREQKHKTFVEKYEKQIKHFGALRRWDDSQKYLSDNVHLVCEETANYLVIWCIDLEVEEKCALMEQVAHQTIVMQFILELAKSLKVDPRACFRQFFTKIKTADRQYMEGFNDELEAFKERVRGRAKLRIEKAMKEYEEEERKKRLGPGGLDPVEVYESLPEELQKCFDVKDVQMLQDAISKMDPTDAKYHMQRCIDSGLWVPNSKASEAKEGEEAGPGDPLLEAVPKTGDEKDVSV", "values": [{"measurement": "Kd", "result": 7.19, "unit": "µM"}]}
